Experiment [1] concerns the target T1, recombinant human tumor necrosis factor-α (Biosource, USA) (human, UniProt P01375 77-233).
T1 construct: also called hTNF-α; TNF-α
Nature of the experiment: competitive ELISA (Friguet method), antibody pre-incubated with soluble hTNF-α, plate coated with hTNF-α. The protocol:
For antibody quantification, 100 ng of goat anti-human immunoglobulin G.A.M (Zymed Laboratories Inc., USA) was distributed into each well of a microplate (Dynatech Laboratories Inc., USA) and the well plate was kept at 4° C. overnight to coat it with the immunoglobulin. At this time, mouse monoclonal antibody TSK114 was used as a control.
Each of the reactants was added to the well plate coated with 0.4 μg of the antigen and the well plate was kept at 37° C. for about 1.5 hrs. A goat anti-human polyclonal antibody (BioRad, USA) conjugated with horseradish peroxidase was diluted at a ratio of 1:1000 and 100 μl of the diluted antibody solution was added to each well. The well plate was kept at 37° C. for 1 hr. After the reaction was completed, the optical density of each well was measured using a horseradish peroxidase substrate kit (BioRad, USA).
Concentrations of the antibody bound to the antigen and the unbound antibody were calculated from the measured optical density, and antigen-binding affinity of the humanized antibodies were determined therefrom (Friguet B. et al., J. Immunol. Meth., 77: 305-319, 1985).

Experiment [2] addresses T1, recombinant human tumor necrosis …. Nature of the experiment: cell-based or functional assay.
Experiment [3] has the same target. Description: SPR (Biacore2000), hTNF-α immobilized. On the procedure: (§1) Then, association and dissociation constants of the reactions were measured by Biacore2000 (Biacore, Sweden).
For orientation: SPR reads the build-up and loss of mass on a sensor chip optically.

Experiment [4] shares this target. Nature of the experiment: SPR (Biacore2000), hTNF-α immobilized on CM5 chip, antibody 25-400 nM as analyte. The protocol:
as §1

T1 sequence (P01375 77-233 limits assumed): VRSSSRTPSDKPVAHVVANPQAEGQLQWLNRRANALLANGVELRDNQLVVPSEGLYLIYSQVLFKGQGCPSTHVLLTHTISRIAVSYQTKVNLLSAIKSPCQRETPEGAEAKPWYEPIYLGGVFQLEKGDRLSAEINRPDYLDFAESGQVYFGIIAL

B1: humanized antibody YHB1411 (antibody, V domains shown)
VH: QVQLVQSGPELKKPGASVKVSCKASGYTFTHYGMNWVRQAPGKGLEWMGWINTNTGEPRYDEEFKGRVTMTRDTSASTAYMELSSLRSEDTAVYYCARYDSRGFDCWGQGTTVTVSS
VL: QIVMTQSPSSLSASVGERVTITCTASSSISYNYFHWYQQKPGSAPKLWIYSSSNLASGVPSRFSGSGSGTDFTFTISSLQPEDIATYYCHQYERSPWTFGGGTKVEIKR
notes: Human heavy and kappa light constant regions come from pHAB-HC and pHAB-KC
Regarding B1, in experiment [1], the Kd came to 0.2 nM. Besides, in experiment [2], the “IC50 (concentration of the antibodies inhibiting cell death by 50%), WHEI 164 cells, MTT” value was 6.7 ng/mL.

B2: humanized antibody YHB1411-2 (antibody, V domains shown)
VH: QVQLVQSGPELKKPGASVKVSCKASGYTFTHYGMNWVRQAPGKGLEWMGWINTNTGEPRYDEEFKGRVTMTRDTSASTAYMELSSLRSEDTAVYYCARYDSRGFDCWGQGTTVTVSS
VL: DIVMTQSPSSLSASVGERVTITCTASSSISYNYFHWYQQKPGSAPKLWIYSSSNLASGVPSRFSGSGSGTDFTFTISSLQPEDIATYYCHQYERSPWTFGGGTKVEIKR
notes: Human heavy and kappa light constant regions come from pHAB-HC and pHAB-KC; also called YBB1411-2
With B2, the “fold higher antigen binding affinity than mouse monoclonal antibody TSK114” value in experiment [3] is approximately 3 fold. Besides, the Kd in experiment [1] was 0.2 nM. Further, in experiment [4], the dissociation constant (Kd) is 0.00171 nM, the koff was found to be 6.8e-08 s⁻¹ and the kon came out at 39600 M⁻¹ s⁻¹. Further, in experiment [2], the “IC50 (concentration of the antibodies inhibiting cell death by 50%), WHEI 164 cells, MTT” value is 5.5 ng/mL.

B3: humanized antibody YHB1406 (antibody, V domains shown)
VH: QVQLVQSGPELKKPGASVKVSCKASGYTFTHYGMNWVRQAPGQGLEWMGWINTNTGEPRYDEEFKGRVTMTRDTSASTAYMELSSLRSEDTAVYYCARYDSRGFDCWGQGTTVTVSS
VL: QIVMTQSPSSLSASVGERVTITCTASSSISYNYFHWYQQKPGSAPKLWIYSSSNLASGVPSRFSGSGSGTDFTFTISSLQPEDIATYYCHQYERSPWTFGGGTKVEIKR
notes: Human heavy chain constant region comes from vector pHAB-HC and human kappa light chain constant region from pHAB-KC
Take B3: the Kd in experiment [1] was 0.22 nM. Also, the “IC50 (concentration of the antibodies inhibiting cell death by 50%), WHEI 164 cells, MTT” value in experiment [2] came to 9.2 ng/mL.

B4: humanized antibody YHB1406-2 (antibody, V domains shown)
VH: QVQLVQSGPELKKPGASVKVSCKASGYTFTHYGMNWVRQAPGKGLEWMGWINTNTGEPRYDEEFKGRVTMTRDTSASTAYMELSSLRSEDTAVYYCARYDSRGFDCWGQGTTLTVSS
VL: DIVMTQSPSSLSASVGERVTITCTASSSISYNYFHWYQQKPGSAPKLWIYSSSNLASGVPSRFSGSGSGTDFTFTISSLQPEDIATYYCHQYERSPWTFGGGTKVEIKR
notes: as for B1
B4: the equilibrium dissociation constant (Kd) in experiment [1] was 0.29 nM. Also, in experiment [2], the “IC50 (concentration of the antibodies inhibiting cell death by 50%), WHEI 164 cells, MTT” value is 6.5 ng/mL.

B5: mouse monoclonal antibody TSK114 (antibody, V domains shown)
VH: QVQLVQSGPELKKPGETVKISCKASGYTFTHYGMNWVKQAPGEGLKWMGWINTNTGEPRYDEEFKGRFAFSLETSASTAYLQINNLRREDTATYFCARYDSRGFDCWGQGTTLTVSS
VL: QIVLTQSPAIMSASLGERVTMTCTASSSISYNYFHWYQQRPGSSPKLWIYSSSNLASGVPPRISGSGSGTSYSLTISSMEAEDAATYYCHQYERSPWTFGGGTKLEIKR
notes: Mouse monoclonal antibody (deposits KCTC 10514BP and KCTC 10515BP); also called Mouse antibody TSK114
With B5, the Kd in experiment [1] worked out at 0.14 nM. In experiment [4], the Kd came out at 0.00579 nM, the off-rate constant (koff) worked out at 2.39e-07 s⁻¹ and the on-rate (kon) turned out to be 41200 M⁻¹ s⁻¹. Further, the “IC50 (concentration of the antibodies inhibiting cell death by 50%), WHEI 164 cells, MTT” value in experiment [2] came out at 4.7 ng/mL.

The Kd is the concentration at which binding is half-saturated. In general, koff refers to a measure of how fast the partners let go of each other. The kon is the second-order rate constant of association.

The values are drawn from patent US20080008703A1 (YUHAN, published 2008).
